B1: Mut OPN/NF-kB (dsDNA)
DNA 1: GAATTTCATGCGGACTTCGAAATTCTAAG
DNA 2: CTTAGAATTTCGAAGTCCGCATGAAATTC
B2: OPN/NF-kB (dsDNA)
DNA 1: GAATTTCATGGGGAAGTCCAAATTCTAAG
DNA 2: CTTAGAATTTGGACTTCCCCATGAAATTC

Legend:
Conditions in all cases: protein: commercial; chain copies: 2; label: biotin; only one strand given
[1] = biological target: p50 (Homo sapiens, UniProt P19838 1-433); experiment: EMSA; 10 mM Tris, 50 mM KCl, 1 mM DTT, 5 mM MgCl2, 1 ug poly(dI-dC), 20 fmol biotinylated probe, 100 ng p65 or 66 ng p50, room temperature 30 min; pH not stated
[2] = biological target: T1, p65 (RelA) (Homo sapiens, UniProt Q04206 1-551); experiment: as above
[3] = biological target: T1, p65 (RelA); experiment: EMSA; supershift with anti-p65 (lane 6); 10 mM Tris, 50 mM KCl, 1 mM DTT, 5 mM MgCl2, 1 ug poly(dI-dC), 20 fmol biotinylated probe, 100 ng p65 or 66 ng p50, room temperature 30 min; pH not stated

T1 sequence (Q04206 whole entry): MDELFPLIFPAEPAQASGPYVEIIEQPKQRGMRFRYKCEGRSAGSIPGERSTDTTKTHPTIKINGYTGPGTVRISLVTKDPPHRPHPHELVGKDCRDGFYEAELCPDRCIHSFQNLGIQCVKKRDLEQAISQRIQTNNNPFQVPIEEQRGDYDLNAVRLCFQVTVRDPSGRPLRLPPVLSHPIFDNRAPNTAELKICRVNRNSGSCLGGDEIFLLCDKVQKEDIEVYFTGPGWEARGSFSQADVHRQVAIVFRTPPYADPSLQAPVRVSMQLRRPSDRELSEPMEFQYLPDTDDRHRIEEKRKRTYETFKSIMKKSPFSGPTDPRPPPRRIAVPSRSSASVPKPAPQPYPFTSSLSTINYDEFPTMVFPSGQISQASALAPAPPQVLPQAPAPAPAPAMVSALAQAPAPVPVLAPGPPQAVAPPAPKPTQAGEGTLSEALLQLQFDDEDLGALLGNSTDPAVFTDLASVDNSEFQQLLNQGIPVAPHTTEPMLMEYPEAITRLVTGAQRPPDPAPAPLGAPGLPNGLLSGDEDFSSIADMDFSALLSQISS
p50, sequence (P19838 1-433): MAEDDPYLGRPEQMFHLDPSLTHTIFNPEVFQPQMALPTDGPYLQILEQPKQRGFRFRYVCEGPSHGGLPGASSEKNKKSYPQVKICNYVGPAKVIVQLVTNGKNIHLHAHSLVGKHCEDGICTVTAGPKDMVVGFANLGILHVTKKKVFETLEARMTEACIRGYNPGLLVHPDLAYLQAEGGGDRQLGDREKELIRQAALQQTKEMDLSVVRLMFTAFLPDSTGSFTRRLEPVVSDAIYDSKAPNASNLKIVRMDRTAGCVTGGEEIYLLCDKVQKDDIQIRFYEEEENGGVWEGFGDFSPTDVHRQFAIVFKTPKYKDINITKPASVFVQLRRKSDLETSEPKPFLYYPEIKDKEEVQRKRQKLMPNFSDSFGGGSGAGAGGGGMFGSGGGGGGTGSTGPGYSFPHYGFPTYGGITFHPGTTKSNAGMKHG

| Binder | binding result [1] | binding result [2] | binding result [3] |
| --- | --- | --- | --- |
| B1 | no binding | no binding |  |
| B2 | binds |  | binds |
